Experimental findings from patent US20090012275A1 (VIB VZW, published 2009) are described below.

In test [1] the target is T1, glucose-6-phosphate dehydrogenase from Leuconostoc mesenteroides (Sigma) (Leuconostoc mesenteroides, UniProt P11411 2-486).
T1 construct: Bought protein spotted on nitrocellulose
T1 sequence: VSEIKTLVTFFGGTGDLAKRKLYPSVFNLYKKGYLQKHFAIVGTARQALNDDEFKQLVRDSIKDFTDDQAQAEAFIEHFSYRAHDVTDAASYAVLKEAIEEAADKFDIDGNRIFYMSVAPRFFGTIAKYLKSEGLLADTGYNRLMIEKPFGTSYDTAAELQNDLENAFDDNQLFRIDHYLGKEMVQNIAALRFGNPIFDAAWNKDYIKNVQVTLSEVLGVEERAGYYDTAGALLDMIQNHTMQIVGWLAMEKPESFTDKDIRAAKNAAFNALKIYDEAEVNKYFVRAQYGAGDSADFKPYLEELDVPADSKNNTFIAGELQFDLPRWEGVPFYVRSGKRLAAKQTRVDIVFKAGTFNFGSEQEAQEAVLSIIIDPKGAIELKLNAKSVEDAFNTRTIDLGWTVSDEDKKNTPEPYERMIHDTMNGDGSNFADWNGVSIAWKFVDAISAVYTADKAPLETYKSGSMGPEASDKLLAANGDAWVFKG
Nature of the test: dot blot: 0.3 mg target protein on nitrocellulose, 10 mM biotinylated peptide, streptavidin-HRP chemiluminescence.

The target of test [2] is T2, citrate synthase from porcine heart (Roche) (porcine, UniProt P00889 28-464).
T2 construct: Bought protein spotted on nitrocellulose
T2 sequence (looked up): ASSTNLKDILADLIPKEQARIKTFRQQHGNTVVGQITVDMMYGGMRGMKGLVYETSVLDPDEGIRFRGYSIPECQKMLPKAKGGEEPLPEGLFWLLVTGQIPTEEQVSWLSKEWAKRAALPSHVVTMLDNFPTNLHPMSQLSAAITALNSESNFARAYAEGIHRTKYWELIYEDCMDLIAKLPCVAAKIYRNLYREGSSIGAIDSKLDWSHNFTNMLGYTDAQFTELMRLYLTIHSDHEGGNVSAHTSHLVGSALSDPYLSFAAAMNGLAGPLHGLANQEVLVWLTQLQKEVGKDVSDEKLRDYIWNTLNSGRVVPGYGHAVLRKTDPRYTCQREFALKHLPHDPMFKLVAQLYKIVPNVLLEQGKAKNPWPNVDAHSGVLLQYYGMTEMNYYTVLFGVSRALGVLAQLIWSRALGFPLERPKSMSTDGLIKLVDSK
Described as above.

Ends that are not written are not given here. * marks the point of attachment. Biotin = O=C1N[C@H]2[C@H](CS[C@H]2CCCCC(=O)*)N1

B1: biotin-AFVDAISAVYTA (peptide)
peptide: Biotin-AFVDAISAVYTA
notes: Synthetic biotinylated peptide; also called interferor molecule with a specificity for glucose-6-phosphate dehydrogenase; biotinylated detection peptide
For the molecule B1, in test [1], the binding result was “binds”.

B2: biotin-ALFWLLVT (peptide)
peptide: Biotin-ALFWLLVT
notes: Synthetic biotinylated peptide (Jerine Peptide Technologies); biotin is part A, the peptide is part B; also called interferor molecule with a specificity for citrate synthase; biotinylated detection peptide
Take B2: the binding result in test [2] is recorded as “binds”.
